Experimental data published in patent publication US20240254229A1 (Molecular Partners, published 2024).
Blank lines part the entries; values can stand above or below the binder they belong to.

Assays:
[1] = biological target: T1, Molm-13 N1 tumor cells (carrying CD123, CD33 and CD70) (human, UniProt P20138 18-364; P26951 19-378; P32970 1-193); assay: flow cytometry on Molm-13 N1 cells, 20 uM HSA
T1 construct: whole, on cells; Not a complex: three separate antigens on one cell; also called Molm-13 N1 cells
T1 sequence (P20138 18-364, one chain of several): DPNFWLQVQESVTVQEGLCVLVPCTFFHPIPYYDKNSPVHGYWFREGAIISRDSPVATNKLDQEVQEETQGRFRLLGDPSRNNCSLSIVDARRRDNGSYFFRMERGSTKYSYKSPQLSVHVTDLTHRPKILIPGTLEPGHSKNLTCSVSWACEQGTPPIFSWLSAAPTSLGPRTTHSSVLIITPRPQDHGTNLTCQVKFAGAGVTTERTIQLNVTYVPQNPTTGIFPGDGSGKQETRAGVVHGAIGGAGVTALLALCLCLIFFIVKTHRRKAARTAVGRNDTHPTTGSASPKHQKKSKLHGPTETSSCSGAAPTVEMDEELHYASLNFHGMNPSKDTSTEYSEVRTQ
Method: The determination of binding of several multispecific proteins to tumor cells was performed by Fluorescence Activated Cell Sorting (FACS) flow cytometry. Therefore, tumor cells (Molm-13 N1), were seeded at 100′000 cells per well in a 96 well plate. DARPin® protein #56, DARPin® protein #57, DARPin® protein #58, DARPin® protein #59, DARPin® protein #60, DARPin® protein #61 and DARPin® protein #62 were titrated down starting at 100 nM in 1:5 dilution ratio. Tumor cells were resuspended with diluted DARPin® proteins and incubated 60 minutes at 4° C. The assay was performed in PBS including 2% fetal bovine serum and human serum albumin 20 uM (HSA). After washing twice with Phosphate Buffer saline (PBS), DARPin® protein specific tumor cell binding was detected by adding unlabelled primary […] (anti-rabbit 1-1-1 antibody, CePower) at 2 ug/ml. An incubation step of at least 30 minutes at 4° C. followed. Afterwards, cells were washed with PBS and a secondary anti-rabbit antibody labelled with Alexa Fluor 647 antibody (ThermoFisher) at 2 ug/ml was added. The same incubation conditions applied. Finally, the cells were washed twice and resuspended in Cytofix fixation buffer (BD Biosciences) for 15 min at room temperature (RT). Median fluorescence intensities (MFI) of Alexa Fluor 647 DARPin® labelled cells were measured by Attune NxT (Thermo Fisher) using FlowJo software for analyses and GraphPad Prism 8 for data plotting.

[2] = biological target: T2, biotinylated extracellular domain of human CD33 (SEQ ID NO: 87), Fc and Avi tagged (human, UniProt P20138 18-259, biotinylated with BirA-GST (Avi tag)); assay: SPR (ProteOn XPR36), target on GLC chip, DARPin as analyte
T2 construct: also called hCD33; human target hCD33
T2 sequence (P20138 18-259 R69G): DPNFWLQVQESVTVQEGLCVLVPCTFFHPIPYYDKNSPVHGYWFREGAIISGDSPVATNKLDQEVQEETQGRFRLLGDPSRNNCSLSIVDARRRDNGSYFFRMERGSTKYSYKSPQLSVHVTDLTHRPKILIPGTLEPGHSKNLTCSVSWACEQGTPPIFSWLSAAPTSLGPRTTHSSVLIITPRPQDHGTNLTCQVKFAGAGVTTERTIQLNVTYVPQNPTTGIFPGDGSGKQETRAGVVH
Text: (§1) For that, DARPin® protein #27, DARPin® protein #29, DARPin® protein #47 and DARPin® protein #48 and DARPin® protein #49, DARPin® protein #50, DARPin® protein #51, DARPin® protein #52, DARPin® protein #31, DARPin® protein #53, DARPin® protein #54, DARPin® protein #55, DARPin® protein #34, DARPin® protein #33, DARPin® protein #39 and DARPin® protein #36 were subcloned and expressed as described above into derivatives of the pQE30 (Qiagen) expression vector, containing an N-terminal His-tag, CD33, CD123 and/or CD70 binding ankyrin repeat domains, followed by a CD3 specific ankyrin repeat domain and for some constructs by a human serum albumin specific ankyrin repeat domain.
(§2) Briefly, biotinylated human CD70, CD123 and CD33 was diluted in PBST (PBS, pH 7.4 containing 0.005% Tween 20®) and coated on a GLC chip (BioRad) to a level of around 200, 460 and 450 resonance units (RU) respectively. HSA in NaOAc pH 5.0 was directly immobilized on the GLC chip to a level of 800 RU. Bio.CD70, bio. CD33 and bio. CD123 required to have Neutravidin coated first to a level of 6000 RU before the biotinylated targets could be applied. The interaction of the selected ankyrin repeat proteins and human CD70, CD123 and CD33 was then measured by injecting 300 μl running buffer (PBS, pH 7.4 containing 0.005% Tween 20®) containing serial dilutions of ankyrin repeat proteins covering a concentration range between 100 nM and 2.6 nM (100, 40, 16, 6.4 and 2.6 nM respectively) for multi-trace SPR measurements, with an association of 120 s and dissociation of 1200 s using a constant flow of 100 μl/min. The regeneration was performed using 30 μl of 4 mM Glycine pH 2. The signals (i.e. resonance unit (RU) values) of the interspots and a reference injection (i.e. injection of running buffer only) were subtracted from the RU traces obtained after injection of ankyrin repeat protein (double-referencing).

[3] = biological target: T3, biotinylated extracellular domain of human CD123 (SEQ ID NO: 88), Fc and Avi tagged (human, UniProt P26951 19-303, biotinylated with BirA-GST (Avi tag)); assay: as above
T3 construct: also called hCD123
T3 sequence: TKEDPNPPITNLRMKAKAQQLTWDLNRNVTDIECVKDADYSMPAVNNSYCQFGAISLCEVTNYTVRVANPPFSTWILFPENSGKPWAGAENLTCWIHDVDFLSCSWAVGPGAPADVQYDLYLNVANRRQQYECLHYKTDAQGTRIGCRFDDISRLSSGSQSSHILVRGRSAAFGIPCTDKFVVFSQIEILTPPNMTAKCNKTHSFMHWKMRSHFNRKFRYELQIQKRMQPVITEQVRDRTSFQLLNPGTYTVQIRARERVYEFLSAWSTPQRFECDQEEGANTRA
Text: as §1, §2

[4] = biological target: T4, extracellular domain of human CD70 (SEQ ID NO: 89), hCD70-Fc-trimer, ACRO Biosystems (human, UniProt P32970 52-193, chemically biotinylated where the biotinylated form was used); assay: as above
T4 construct: also called human CD70-Fc-trimer; Bio.CD70
T4 sequence: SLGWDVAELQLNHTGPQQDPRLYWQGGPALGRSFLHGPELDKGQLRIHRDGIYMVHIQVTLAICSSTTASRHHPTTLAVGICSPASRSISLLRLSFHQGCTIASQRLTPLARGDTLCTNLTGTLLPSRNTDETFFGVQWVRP
Text: as §1, §2

[5] = biological target: T5, human serum albumin (human, UniProt P02768 25-609); assay: as above
T5 construct: also called HSA; SA
T5 sequence (P02768 25-609 limits assumed): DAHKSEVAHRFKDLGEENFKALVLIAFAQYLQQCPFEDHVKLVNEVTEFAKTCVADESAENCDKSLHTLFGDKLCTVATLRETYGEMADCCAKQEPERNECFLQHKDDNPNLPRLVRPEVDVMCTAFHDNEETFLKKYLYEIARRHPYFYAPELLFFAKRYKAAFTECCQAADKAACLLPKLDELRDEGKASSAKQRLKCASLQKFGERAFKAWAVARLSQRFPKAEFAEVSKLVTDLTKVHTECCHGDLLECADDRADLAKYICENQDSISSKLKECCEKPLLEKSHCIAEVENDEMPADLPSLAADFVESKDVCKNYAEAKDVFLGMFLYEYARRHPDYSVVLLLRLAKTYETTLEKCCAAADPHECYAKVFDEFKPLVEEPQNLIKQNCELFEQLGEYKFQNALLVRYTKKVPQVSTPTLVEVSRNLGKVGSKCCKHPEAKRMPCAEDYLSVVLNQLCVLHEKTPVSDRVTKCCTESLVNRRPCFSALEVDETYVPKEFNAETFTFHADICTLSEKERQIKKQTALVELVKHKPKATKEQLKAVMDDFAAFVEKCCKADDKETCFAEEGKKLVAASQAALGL
Text: as §1, §2

B1: DARPin® protein #60 (designed binder)
chain: DLGKKLLEAARAGQDDEVRELLKAGADVNAKDYFSHTPLHLAARNGHLKIVEVLLKAGADVNAKDFAGKTPLHLAAADGHLEIVEVLLKAGADVNAQDIFGKTPADIAADAGHEDIAEVLQKAAGSPTPTPTTPTPTPTTPTPTPTGSDLGKKLLEAARAGQDDEVRELLKAGADVNAKDYFSHTPLHLAARNGHLKIVEVLLKAGADVNAKDFAGKTPLHLAAADGHLEIVEVLLKAGADVNAQDIFGKTPADIAADAGHEDIAEVLQKAAGSPTPTPTTPTPTPTTPTPTPTGSDLGIKLLTAAYDGQLDEVRILLKAGADVNAKDLRGQTPLHYAAGLGHLEIVEVLLKAGADVNAKDLHGWTPLHLAAWSGHLEIVEVLLKAGADVNAQDVEGVTPADLAAVQGHQDIAEVLQKAAGSPTPTPTTPTPTPTTPTPTPTGSDLGKKLLQAARAGQLDEVRELLKAGADVNAKDQYGRTPLHLAAIKGHLEIVEVLLKAGADVNAKDSLGYTPLHLAAVEGPLEIVEVLLKAGADVNAKDAYGQTPLHIAAAWGHLEIVEVLLKAVADVNAQDKSGKTPADLAARAGHQDIAEVLQKAAGSPTPTPTTPTPTPTTPTPTPTGSDLGVKLLLAAERGQLDEVRILLKAGADVNAKDIAEGYTPLHIAAYQGHLEIVEVLLKAGADVNAKDRYGKTPLHLAAIGGHLEIVEVLLKAGADVNAQDNKGSTPADLAADYGHQDIAEVLQKAAGSPTGSDLGQKLLEAAWAGQDDEVRELLKAGADVNAKNSRGWTPLHTAAQTGHLEIFEVLLKAGADVNAKNDKRVTPLHLAAALGHLEIVEVLLKAGADVNARDSWGTTPADLAAKYGHQDIAEVLQKAA
notes: HSA-HSA-CD70-CD123-CD33-CD3
EC50 [1]: 0.16 nM

B4: DARPin® protein #58 (designed binder)
chain: DLGKKLLEAARAGQDDEVRELLKAGADVNAKDYFSHTPLHLAARNGHLKIVEVLLKAGADVNAKDFAGKTPLHLAAADGHLEIVEVLLKAGADVNAQDIFGKTPADIAADAGHEDIAEVLQKAAGSPTPTPTTPTPTPTTPTPTPTGSDLGKKLLEAARAGQDDEVRELLKAGADVNAKDYFSHTPLHLAARNGHLKIVEVLLKAGADVNAKDFAGKTPLHLAAADGHLEIVEVLLKAGADVNAQDIFGKTPADIAADAGHEDIAEVLQKAAGSPTPTPTTPTPTPTTPTPTPTGSDLGIKLLTAAYDGQLDEVRILLKAGADVNAKDLRGQTPLHYAAGLGHLEIVEVLLKAGADVNAKDLHGWTPLHLAAWSGHLEIVEVLLKAGADVNAQDVEGVTPADLAAVQGHQDIAEVLQKAAGSPTPTPTTPTPTPTTPTPTPTGSDLGWKLLDAAEIGQLDEVRILLKAGADVNAKDKQGITPLHIAAAHGHLEIVEVLLKAGADVNAKDEIGRTPLHLAAFKGHLEIVEVLLKAGADVNAQDIIGETPADLAAVRGHQDIAEVLQKAAGSPTPTPTTPTPTPTTPTPTPTGSDLGVKLLLAAERGQLDEVRILLKAGADVNAKDIAEGYTPLHIAAYQGHLEIVEVLLKAGADVNAKDRYGKTPLHLAAIGGHLEIVEVLLKAGADVNAQDNKGSTPADLAADYGHQDIAEVLQKAAGSPTGSDLGQKLLEAAWAGQDDEVRELLKAGADVNAKNSRGWTPLHTAAQTGHLEIFEVLLKAGADVNAKNDKRVTPLHLAAALGHLEIVEVLLKAGADVNARDSWGTTPADLAAKYGHQDIAEVLQKAA
notes: HSA-HSA-CD70-CD123-CD33-CD3
EC50 [1]: 0.17 nM

Results, then the binder that gave them:

Kd [2]: 9.6 nM
Kd [3]: 13 nM
Kd [4]: 0.38 nM
Kd [5]: 7.5 nM
B2: DARPin® protein #55 (designed binder)
chain: MRGSHHHHHHDLGYKLLQAAYDGQLDEVRILLKAGADVNAKDSRGQTPLHYAASIGHLEIVEVLLKAGADVNAKDDHGWTPLHLAAWSGHLEIVEVLLKAGADVNAQDQEGTTPADLAAVQGHQDIAEVLQKAAGSPTPTPTTPTPTPTTPTPTPTGSDLGKKLLEAALEGQLDEVRELLKAGADVNAKDQEGYTPLHLAAALGHLEIVEVLLKAGADVNAKDSIGRTPLHLAAYKGHLEIVEVLLKAGADVNAQDLLGETPADLAAEQGHQDIAEVLQKAAGSPTPTPTTPTPTPTTPTPTPTGSDLGVKLLRAAVHGQLDEVRILLKAGADVNAKDTDGETPLHYAAQFGHLEIVEVLLKAGADVNAKDAYGATPLHWAAWHGHLEIVEVLLKAGADVNAQDVSGATPADLAAKVGHQDIAEVLQKAAGSPTPTPTTPTPTPTTPTPTPTGSDLGQKLLEAAWAGQDDEVRELLKAGADVNAKNSRGWTPLHTAAQTGHLEIFEVLLKAGADVNAKDDKGVTPLHLAAALGHLEIVEVLLKAGADVNAQDSWGTTPADLAAKYGHEDIAEVLQKAAGSPTPTPTTPTPTPTTPTPTPTGSDLGKKLLEAARAGQDDEVRELLKAGADVNAKDYFSHTPLHLAARNGHLKIVEVLLKAGADVNAKDFAGKTPLHLAAADGHLEIVEVLLKAGADVNAQDIFGKTPADIAADAGHEDIAEVLQKAA
notes: CD70-CD123-CD33-CD3-HSA

EC50 [1]: 0.19 nM
B3: DARPin® protein #59 (designed binder)
chain: DLGKKLLEAARAGQDDEVRELLKAGADVNAKDYFSHTPLHLAARNGHLKIVEVLLKAGADVNAKDFAGKTPLHLAAADGHLEIVEVLLKAGADVNAQDIFGKTPADIAADAGHEDIAEVLQKAAGSPTPTPTTPTPTPTTPTPTPTGSDLGKKLLEAARAGQDDEVRELLKAGADVNAKDYFSHTPLHLAARNGHLKIVEVLLKAGADVNAKDFAGKTPLHLAAADGHLEIVEVLLKAGADVNAQDIFGKTPADIAADAGHEDIAEVLQKAAGSPTPTPTTPTPTPTTPTPTPTGSDLGIKLLTAAYDGQLDEVRILLKAGADVNAKDLRGQTPLHYAAGLGHLEIVEVLLKAGADVNAKDLHGWTPLHLAAWSGHLEIVEVLLKAGADVNAQDVEGVTPADLAAVQGHQDIAEVLQKAAGSPTPTPTTPTPTPTTPTPTPTGSDLGKKLLEAALEGQLDEVRELLKAGADVNAKDQEGYTPLHLAAALGHLEIVEVLLKAGADVNAKDQIGRTPLHLAAYKGHLEIVEVLLKAGADVNAQDIIGQTPADLAAQRGHQDIAEVLQKAAGSPTPTPTTPTPTPTTPTPTPTGSDLGVKLLLAAERGQLDEVRILLKAGADVNAKDIAEGYTPLHIAAYQGHLEIVEVLLKAGADVNAKDRYGKTPLHLAAIGGHLEIVEVLLKAGADVNAQDNKGSTPADLAADYGHQDIAEVLQKAAGSPTGSDLGQKLLEAAWAGQDDEVRELLKAGADVNAKNSRGWTPLHTAAQTGHLEIFEVLLKAGADVNAKNDKRVTPLHLAAALGHLEIVEVLLKAGADVNARDSWGTTPADLAAKYGHQDIAEVLQKAA
notes: HSA-HSA-CD70-CD123-CD33-CD3
